These results are taken from patent publication US20160058848A1.

In data set [1] the target is T1, human corin mutant R801A, Q9Y5Q5.
T1 chain: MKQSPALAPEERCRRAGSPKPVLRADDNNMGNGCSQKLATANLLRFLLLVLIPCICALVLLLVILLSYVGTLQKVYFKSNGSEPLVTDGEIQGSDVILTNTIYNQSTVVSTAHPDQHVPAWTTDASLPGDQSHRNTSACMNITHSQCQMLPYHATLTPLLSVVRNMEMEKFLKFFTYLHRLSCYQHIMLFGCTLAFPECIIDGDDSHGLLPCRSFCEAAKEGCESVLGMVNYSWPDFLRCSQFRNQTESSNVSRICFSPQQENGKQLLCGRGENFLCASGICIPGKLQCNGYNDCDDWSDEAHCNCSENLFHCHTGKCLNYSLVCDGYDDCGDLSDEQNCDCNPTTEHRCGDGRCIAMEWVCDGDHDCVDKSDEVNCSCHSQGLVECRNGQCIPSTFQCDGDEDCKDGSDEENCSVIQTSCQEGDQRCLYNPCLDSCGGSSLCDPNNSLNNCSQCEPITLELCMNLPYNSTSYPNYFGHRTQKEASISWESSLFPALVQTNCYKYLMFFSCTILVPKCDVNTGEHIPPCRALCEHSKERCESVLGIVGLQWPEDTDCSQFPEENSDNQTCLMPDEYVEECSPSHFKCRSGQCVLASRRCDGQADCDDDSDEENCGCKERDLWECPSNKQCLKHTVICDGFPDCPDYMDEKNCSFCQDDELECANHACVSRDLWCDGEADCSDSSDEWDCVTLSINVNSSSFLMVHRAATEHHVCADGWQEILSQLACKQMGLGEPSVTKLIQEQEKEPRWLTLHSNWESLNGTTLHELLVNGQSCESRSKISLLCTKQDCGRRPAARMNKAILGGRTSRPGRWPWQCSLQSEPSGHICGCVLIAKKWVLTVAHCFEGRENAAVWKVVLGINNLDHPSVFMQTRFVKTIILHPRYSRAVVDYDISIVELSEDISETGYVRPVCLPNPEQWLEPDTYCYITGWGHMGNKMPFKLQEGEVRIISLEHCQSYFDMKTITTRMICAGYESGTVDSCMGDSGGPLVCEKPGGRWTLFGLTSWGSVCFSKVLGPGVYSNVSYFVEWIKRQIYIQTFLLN

In data set [2] the target is T2, human corin variant Q568P, Q9Y5Q5.
T2 chain: T1 chain with Q568P, A801R

Data set [3] addresses human corin mutant K317E (human) (UniProt Q9Y5Q5). Kind of data set: cell-based or functional assay.
Data set [4] addresses human corin mutant R539C (human) (UniProt Q9Y5Q5). As to the kind of experiment: cell-based or functional assay.
In data set [5] the target is human corin mutant S472G (human) (UniProt Q9Y5Q5). As to the kind of experiment: cell-based or functional assay.

Numbering of substitutions follows the chain as printed.

B1: recombinant human proprotein convertase subtilisin/kexin-6 (PCSK6) with a C-terminal flag tag (protein)
chain: QVRSDPQALYFNDPIWSNMWYLHCGDKNSRCRSEMNVQAAWKRGYTGKNVVVTILDDGIERNHPDLAPNYDSYASYDVNGNDYDPSPRYDASNENKHGTRCAGEVAASANNSYCIVGIAYNAKIGGIRMLDGDVTDVVEAKSLGIRPNYIDIYSASWGPDDDGKTVDGPGRLAKQAFEYGIKKGRQGLGSIFVWASGNGGREGDYCSCDGYTNSIYTISVSSATENGYKPWYLEECASTLATTYSSGAFYERKIVTTDLRQRCTDGHTGTSVSAPMVAGIIALALEANSQLTWRDVQHLLVKTSRPAHLKASDWKVNGAGHKVSHFYGFGLVDAEALVVEAKKWTAVPSQHMCVAASDKRPRSIPLVQVLRTTALTSACAEHSDQRVVYLEHVVVRTSISHPRRGDLQIYLVSPSGTKSQLLAKRLLDLSNEGFTNWEFMTVHCWGEKAEGQWTLEIQDLPSQVRNPEKQGKLKEWSLILYGTAEHPYHTFSAHQSRSRMLELSAPELEPPKAALSPSQVEVPEDEEDYTAQSTPGSANILQTSVCHPECGDKGCDGPNADQCLNCVHFSLGSVKTSRKCVSVCPLGYFGDTAARRCRRCHKGCETCSSRAATQCLSCRRGFYHHQEMNTCVTLCPAGFYADESQKNCLKCHPSCKKCVDEPEKCTVCKEGFSLARGSCIPDCEPGTYFDSELIRCGECHHTCGTCVGPGREECIHCAKNFHFHDWKCVPACGEGFYPEEMPGLPHKVCRRCDENCLSCAGSSRNCSRCKTGFTQLGTSCITNHTCSNADETFCEMVKSNRLCERKLFIQFCCRTCLLAG
Take B1: the “PCSK6-mediated activation cleavage (Western blot, densitometry)” value is “In controls, no activation cleavage was detected in mutant R801A lacking the cleavage site” in data set [1]; “PCSK6-mediated activation cleavage was detected in corin WT and variants T555I or Q568P, but not variant T555I/Q568P” in data set [2]. In addition, the reduction in PCSK6-mediated corin activation compared with WT corin (Western blot, densitometry) (% reduction vs WT corin) in data set [3] was found to be 39; in data set [4], 62; in data set [5], 99.
